Measured values published in patent publication US20210388087A1 (Chugai, published 2021).

target: T1, CD3 epsilon homodimer protein (UniProt P07766 23-126); experiment: SPR Biacore T200, CD3e homodimer on chip, vs unaltered GLS3000 antibody
T1 construct: also called CD3 (CD3 epsilon)
T1 sequence (P07766 23-126): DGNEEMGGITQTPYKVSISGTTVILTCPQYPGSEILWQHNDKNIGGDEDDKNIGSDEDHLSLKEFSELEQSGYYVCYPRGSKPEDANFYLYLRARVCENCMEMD
Protocol: An appropriate amount of CD3 epsilon homodimer protein was immobilized onto Sensor chip CM4 (GE Healthcare Japan Corp.) by the amine coupling method. Then, the antibody having an appropriate concentration was injected thereto as an analyte and allowed to interact with the CD3 epsilon homodimer protein on the sensor chip. Then, the sensor chip was regenerated by the injection of 10 mmol/L glycine-HCl (pH 1.5). The assay was conducted at 25 degrees C., and HBS-EP+(GE Healthcare Japan Corp.) was used as a running buffer. […] Each parameter was calculated using Biacore T200 Evaluation Software (GE Healthcare Japan Corp.).

Row | Binder | ratio of amounts bound (Z=Y/X)
1 | GLS3000 S27eL (antibody, name in Kabat numbering, V domains shown, one-arm IgG as m2) VH: QVQLVESGGGVVQPGRSLRLSCAASGFTFSNAWMHWVRQAPGKGLEWVAQIKAKSNNYATYYAESVKGRFTISRDDSKNSLYLQMNSLKTEDTAVYYCRYVHYGAYYGVDAWGQGTTVTVSS VL: DIVMTQSPLSLPVTPGEPASISCRSSQSLVHLNRNTYLHWYQQKPGQAPRLLIYKVSNRFSGVPDRFSGSGSGTDFTLKISRVEAEDVGVYYCGQGTQVPYTFGQGTKLEIK | 1.17
2 | GLS3000 S27eW (antibody, name in Kabat numbering, V domains shown, one-arm IgG as m2) VH: QVQLVESGGGVVQPGRSLRLSCAASGFTFSNAWMHWVRQAPGKGLEWVAQIKAKSNNYATYYAESVKGRFTISRDDSKNSLYLQMNSLKTEDTAVYYCRYVHYGAYYGVDAWGQGTTVTVSS VL: DIVMTQSPLSLPVTPGEPASISCRSSQSLVHWNRNTYLHWYQQKPGQAPRLLIYKVSNRFSGVPDRFSGSGSGTDFTLKISRVEAEDVGVYYCGQGTQVPYTFGQGTKLEIK | 1.55
3 | GLS3000 S27eM (antibody, name in Kabat numbering, V domains shown, one-arm IgG as m2) VH: QVQLVESGGGVVQPGRSLRLSCAASGFTFSNAWMHWVRQAPGKGLEWVAQIKAKSNNYATYYAESVKGRFTISRDDSKNSLYLQMNSLKTEDTAVYYCRYVHYGAYYGVDAWGQGTTVTVSS VL: DIVMTQSPLSLPVTPGEPASISCRSSQSLVHMNRNTYLHWYQQKPGQAPRLLIYKVSNRFSGVPDRFSGSGSGTDFTLKISRVEAEDVGVYYCGQGTQVPYTFGQGTKLEIK | 1.23
4 | GLS3000 S27eT (antibody, name in Kabat numbering, V domains shown, one-arm IgG as m2) VH: QVQLVESGGGVVQPGRSLRLSCAASGFTFSNAWMHWVRQAPGKGLEWVAQIKAKSNNYATYYAESVKGRFTISRDDSKNSLYLQMNSLKTEDTAVYYCRYVHYGAYYGVDAWGQGTTVTVSS VL: DIVMTQSPLSLPVTPGEPASISCRSSQSLVHTNRNTYLHWYQQKPGQAPRLLIYKVSNRFSGVPDRFSGSGSGTDFTLKISRVEAEDVGVYYCGQGTQVPYTFGQGTKLEIK | 0.97
5 | GLS3000 S27eV (antibody, name in Kabat numbering, V domains shown, one-arm IgG as m2) VH: QVQLVESGGGVVQPGRSLRLSCAASGFTFSNAWMHWVRQAPGKGLEWVAQIKAKSNNYATYYAESVKGRFTISRDDSKNSLYLQMNSLKTEDTAVYYCRYVHYGAYYGVDAWGQGTTVTVSS VL: DIVMTQSPLSLPVTPGEPASISCRSSQSLVHVNRNTYLHWYQQKPGQAPRLLIYKVSNRFSGVPDRFSGSGSGTDFTLKISRVEAEDVGVYYCGQGTQVPYTFGQGTKLEIK | 1.08
6 | GLS3000 S27eP (antibody, name in Kabat numbering, V domains shown, one-arm IgG as m2) VH: QVQLVESGGGVVQPGRSLRLSCAASGFTFSNAWMHWVRQAPGKGLEWVAQIKAKSNNYATYYAESVKGRFTISRDDSKNSLYLQMNSLKTEDTAVYYCRYVHYGAYYGVDAWGQGTTVTVSS VL: DIVMTQSPLSLPVTPGEPASISCRSSQSLVHPNRNTYLHWYQQKPGQAPRLLIYKVSNRFSGVPDRFSGSGSGTDFTLKISRVEAEDVGVYYCGQGTQVPYTFGQGTKLEIK | 1.26
7 | GLS3000 S27eQ (antibody, name in Kabat numbering, V domains shown, one-arm IgG as m2) VH: QVQLVESGGGVVQPGRSLRLSCAASGFTFSNAWMHWVRQAPGKGLEWVAQIKAKSNNYATYYAESVKGRFTISRDDSKNSLYLQMNSLKTEDTAVYYCRYVHYGAYYGVDAWGQGTTVTVSS VL: DIVMTQSPLSLPVTPGEPASISCRSSQSLVHQNRNTYLHWYQQKPGQAPRLLIYKVSNRFSGVPDRFSGSGSGTDFTLKISRVEAEDVGVYYCGQGTQVPYTFGQGTKLEIK | 1.1
8 | GLS3000 S27eR (antibody, name in Kabat numbering, V domains shown, one-arm IgG as m2) VH: QVQLVESGGGVVQPGRSLRLSCAASGFTFSNAWMHWVRQAPGKGLEWVAQIKAKSNNYATYYAESVKGRFTISRDDSKNSLYLQMNSLKTEDTAVYYCRYVHYGAYYGVDAWGQGTTVTVSS VL: DIVMTQSPLSLPVTPGEPASISCRSSQSLVHRNRNTYLHWYQQKPGQAPRLLIYKVSNRFSGVPDRFSGSGSGTDFTLKISRVEAEDVGVYYCGQGTQVPYTFGQGTKLEIK | 1.58
9 | GLS3000 S27eN (antibody, name in Kabat numbering, V domains shown, one-arm IgG as m2) VH: QVQLVESGGGVVQPGRSLRLSCAASGFTFSNAWMHWVRQAPGKGLEWVAQIKAKSNNYATYYAESVKGRFTISRDDSKNSLYLQMNSLKTEDTAVYYCRYVHYGAYYGVDAWGQGTTVTVSS VL: DIVMTQSPLSLPVTPGEPASISCRSSQSLVHNNRNTYLHWYQQKPGQAPRLLIYKVSNRFSGVPDRFSGSGSGTDFTLKISRVEAEDVGVYYCGQGTQVPYTFGQGTKLEIK | 1.16

Now from value to binder:

Row | ratio of amounts bound (Z=Y/X) | Binder
10 | 0.33 | GLS3000 S52P (antibody, name in Kabat numbering, V domains shown, one-arm IgG as m2) VH: QVQLVESGGGVVQPGRSLRLSCAASGFTFSNAWMHWVRQAPGKGLEWVAQIKAKSNNYATYYAESVKGRFTISRDDSKNSLYLQMNSLKTEDTAVYYCRYVHYGAYYGVDAWGQGTTVTVSS VL: DIVMTQSPLSLPVTPGEPASISCRSSQSLVHSNRNTYLHWYQQKPGQAPRLLIYKVPNRFSGVPDRFSGSGSGTDFTLKISRVEAEDVGVYYCGQGTQVPYTFGQGTKLEIK
11 | 1.05 | GLS3000 S52Q (antibody, name in Kabat numbering, V domains shown, one-arm IgG as m2) VH: QVQLVESGGGVVQPGRSLRLSCAASGFTFSNAWMHWVRQAPGKGLEWVAQIKAKSNNYATYYAESVKGRFTISRDDSKNSLYLQMNSLKTEDTAVYYCRYVHYGAYYGVDAWGQGTTVTVSS VL: DIVMTQSPLSLPVTPGEPASISCRSSQSLVHSNRNTYLHWYQQKPGQAPRLLIYKVQNRFSGVPDRFSGSGSGTDFTLKISRVEAEDVGVYYCGQGTQVPYTFGQGTKLEIK
12 | 1.2 | GLS3000 S27eY (antibody, name in Kabat numbering, V domains shown, one-arm IgG as m2) VH: QVQLVESGGGVVQPGRSLRLSCAASGFTFSNAWMHWVRQAPGKGLEWVAQIKAKSNNYATYYAESVKGRFTISRDDSKNSLYLQMNSLKTEDTAVYYCRYVHYGAYYGVDAWGQGTTVTVSS VL: DIVMTQSPLSLPVTPGEPASISCRSSQSLVHYNRNTYLHWYQQKPGQAPRLLIYKVSNRFSGVPDRFSGSGSGTDFTLKISRVEAEDVGVYYCGQGTQVPYTFGQGTKLEIK
13 | 1.32 | GLS3000 S56F (antibody, name in Kabat numbering, V domains shown, one-arm IgG as m2) VH: QVQLVESGGGVVQPGRSLRLSCAASGFTFSNAWMHWVRQAPGKGLEWVAQIKAKSNNYATYYAESVKGRFTISRDDSKNSLYLQMNSLKTEDTAVYYCRYVHYGAYYGVDAWGQGTTVTVSS VL: DIVMTQSPLSLPVTPGEPASISCRSSQSLVHSNRNTYLHWYQQKPGQAPRLLIYKVSNRFFGVPDRFSGSGSGTDFTLKISRVEAEDVGVYYCGQGTQVPYTFGQGTKLEIK
14 | 1.12 | GLS3000 S52Y (antibody, name in Kabat numbering, V domains shown, one-arm IgG as m2) VH: QVQLVESGGGVVQPGRSLRLSCAASGFTFSNAWMHWVRQAPGKGLEWVAQIKAKSNNYATYYAESVKGRFTISRDDSKNSLYLQMNSLKTEDTAVYYCRYVHYGAYYGVDAWGQGTTVTVSS VL: DIVMTQSPLSLPVTPGEPASISCRSSQSLVHSNRNTYLHWYQQKPGQAPRLLIYKVYNRFSGVPDRFSGSGSGTDFTLKISRVEAEDVGVYYCGQGTQVPYTFGQGTKLEIK
15 | 0.92 | GLS3000 S56G (antibody, name in Kabat numbering, V domains shown, one-arm IgG as m2) VH: QVQLVESGGGVVQPGRSLRLSCAASGFTFSNAWMHWVRQAPGKGLEWVAQIKAKSNNYATYYAESVKGRFTISRDDSKNSLYLQMNSLKTEDTAVYYCRYVHYGAYYGVDAWGQGTTVTVSS VL: DIVMTQSPLSLPVTPGEPASISCRSSQSLVHSNRNTYLHWYQQKPGQAPRLLIYKVSNRFGGVPDRFSGSGSGTDFTLKISRVEAEDVGVYYCGQGTQVPYTFGQGTKLEIK
16 | 0.71 | GLS3000 S56E (antibody, name in Kabat numbering, V domains shown, one-arm IgG as m2) VH: QVQLVESGGGVVQPGRSLRLSCAASGFTFSNAWMHWVRQAPGKGLEWVAQIKAKSNNYATYYAESVKGRFTISRDDSKNSLYLQMNSLKTEDTAVYYCRYVHYGAYYGVDAWGQGTTVTVSS VL: DIVMTQSPLSLPVTPGEPASISCRSSQSLVHSNRNTYLHWYQQKPGQAPRLLIYKVSNRFEGVPDRFSGSGSGTDFTLKISRVEAEDVGVYYCGQGTQVPYTFGQGTKLEIK
17 | 0.93 | GLS3000 S52A (antibody, name in Kabat numbering, V domains shown, one-arm IgG as m2) VH: QVQLVESGGGVVQPGRSLRLSCAASGFTFSNAWMHWVRQAPGKGLEWVAQIKAKSNNYATYYAESVKGRFTISRDDSKNSLYLQMNSLKTEDTAVYYCRYVHYGAYYGVDAWGQGTTVTVSS VL: DIVMTQSPLSLPVTPGEPASISCRSSQSLVHSNRNTYLHWYQQKPGQAPRLLIYKVANRFSGVPDRFSGSGSGTDFTLKISRVEAEDVGVYYCGQGTQVPYTFGQGTKLEIK
18 | 1.05 | GLS3000 S56H (antibody, name in Kabat numbering, V domains shown, one-arm IgG as m2) VH: QVQLVESGGGVVQPGRSLRLSCAASGFTFSNAWMHWVRQAPGKGLEWVAQIKAKSNNYATYYAESVKGRFTISRDDSKNSLYLQMNSLKTEDTAVYYCRYVHYGAYYGVDAWGQGTTVTVSS VL: DIVMTQSPLSLPVTPGEPASISCRSSQSLVHSNRNTYLHWYQQKPGQAPRLLIYKVSNRFHGVPDRFSGSGSGTDFTLKISRVEAEDVGVYYCGQGTQVPYTFGQGTKLEIK
19 | 0.77 | GLS3000 S56D (antibody, name in Kabat numbering, V domains shown, one-arm IgG as m2) VH: QVQLVESGGGVVQPGRSLRLSCAASGFTFSNAWMHWVRQAPGKGLEWVAQIKAKSNNYATYYAESVKGRFTISRDDSKNSLYLQMNSLKTEDTAVYYCRYVHYGAYYGVDAWGQGTTVTVSS VL: DIVMTQSPLSLPVTPGEPASISCRSSQSLVHSNRNTYLHWYQQKPGQAPRLLIYKVSNRFDGVPDRFSGSGSGTDFTLKISRVEAEDVGVYYCGQGTQVPYTFGQGTKLEIK
20 | 1.16 | GLS3000 S56A (antibody, name in Kabat numbering, V domains shown, one-arm IgG as m2) VH: QVQLVESGGGVVQPGRSLRLSCAASGFTFSNAWMHWVRQAPGKGLEWVAQIKAKSNNYATYYAESVKGRFTISRDDSKNSLYLQMNSLKTEDTAVYYCRYVHYGAYYGVDAWGQGTTVTVSS VL: DIVMTQSPLSLPVTPGEPASISCRSSQSLVHSNRNTYLHWYQQKPGQAPRLLIYKVSNRFAGVPDRFSGSGSGTDFTLKISRVEAEDVGVYYCGQGTQVPYTFGQGTKLEIK
21 | 0.63 | GLS3000 S52D (antibody, name in Kabat numbering, V domains shown, one-arm IgG as m2) VH: QVQLVESGGGVVQPGRSLRLSCAASGFTFSNAWMHWVRQAPGKGLEWVAQIKAKSNNYATYYAESVKGRFTISRDDSKNSLYLQMNSLKTEDTAVYYCRYVHYGAYYGVDAWGQGTTVTVSS VL: DIVMTQSPLSLPVTPGEPASISCRSSQSLVHSNRNTYLHWYQQKPGQAPRLLIYKVDNRFSGVPDRFSGSGSGTDFTLKISRVEAEDVGVYYCGQGTQVPYTFGQGTKLEIK
